Values joined by “and” are separate entries in the source; they are usually repeats but may differ in a detail not shown here. Equal entries are not always repeated.
How the values were obtained:
[1] = target: human CTLA4 (human) (UniProt P16410); test: ELISA, coat CTLA4 0.5 ug/ml; antibody 0 (blank)
[2] = target: human CTLA4 (human) (UniProt P16410); test: ELISA on coated CTLA4, source Human (row of 8D2H2L2)
[3] = target: human CTLA4 (human) (UniProt P16410); test: ELISA on coated CTLA4, source Human (row of 8D2H2L15)
[4] = target: monkey CTLA4-hFc (monkey); test: ELISA on coated CTLA4, source Monkey (row of 8D2H2L2)
[5] = target: CTLA4-mFc; test: competitive ELISA, competitor B7-2; control run with 8D2
[6] = target: monkey CTLA4-hFc (monkey); test: ELISA, coat monkey CTLA4-hFc 0.25 ug/ml; antibody 1 ug/ml
[7] = target: human CTLA4 (human) (UniProt P16410); test: ELISA, coat CTLA4 0.5 ug/ml; antibody 1:3 (start 1 ug/ml)
[8] = target: CTLA4 antigen (NCBI Gene ID: 1493) obtained by TEV protease cleavage of CTLA4-mFc (Homo sapiens (Human)) (UniProt P16410); test: BLI (Fortebio), antibody on AR2G sensor, CTLA4 in solution
[9] = target: human CTLA4 (human) (UniProt P16410); test: ELISA, coat CTLA4 0.5 ug/ml; antibody 1:81 (start 1 ug/ml)
[10] = target: human CTLA4 (human) (UniProt P16410); test: ELISA, coat CTLA4 0.5 ug/ml; antibody 1:729 (start 1 ug/ml)
[11] = target: CTLA4-mFc; test: competitive ELISA, competitor B7-1; control run with 8D2H2L2
[12] = target: CTLA4-mFc; test: competitive ELISA, competitor B7-2; control run with 8D2(Re)
[13] = target: CTLA4-mFc; test: competitive ELISA, competitor B7-2; control run with 8D2H1L1
[14] = target: CTLA4-mFc; test: competitive ELISA, competitor B7-2; control run with 8D2H3L3
[15] = target: human CTLA4 (human) (UniProt P16410); test: ELISA, coat human CTLA4 0.5 ug/ml; antibody 1:3 (start 1 ug/ml)
[16] = target: human CTLA4 (human) (UniProt P16410); test: ELISA, coat human CTLA4 0.5 ug/ml; antibody 1:9 (start 1 ug/ml)
[17] = target: human CTLA4 (human) (UniProt P16410); test: ELISA, coat human CTLA4 0.5 ug/ml; antibody 1:81 (start 1 ug/ml)
[18] = target: human CTLA4 (human) (UniProt P16410); test: ELISA, coat human CTLA4 0.5 ug/ml; antibody 1:243 (start 1 ug/ml)
[19] = target: human CTLA4 (human) (UniProt P16410); test: ELISA, coat human CTLA4 0.5 ug/ml; antibody 1:729 (start 1 ug/ml)
[20] = target: monkey CTLA4-hFc (monkey); test: ELISA, coat monkey CTLA4-hFc 0.25 ug/ml; antibody 1:243 (start 1 ug/ml)
[21] = target: CTLA4-mFc; test: competitive ELISA, CTLA4-mFc coated, competitor B7/2-His; antibody 1.5 µg/ml
[22] = target: CTLA4-mFc; test: competitive ELISA, CTLA4-mFc coated, competitor B7/2-His; antibody 0 (no antibody)
[23] = target: CTLA4-mFc; test: as above; remark: listed apart in the source
[24] = target: CTLA4-mFc; test: competitive ELISA, CTLA4-mFc coated, competitor B7/2-His; antibody 3 µg/ml diluted 1:3
[25] = target: CTLA4-mFc; test: competitive ELISA, CTLA4-mFc coated, competitor B7/2-His; antibody 3 µg/ml diluted 1:9
[26] = target: CTLA4-mFc; test: competitive ELISA, CTLA4-mFc coated, competitor B7/2-His; antibody 1 µg/ml diluted 1:9
[27] = target: CTLA4-mFc; test: competitive ELISA, CTLA4-mFc coated, competitor B7/2-His; antibody 1 µg/ml diluted 1:81
[28] = target: CTLA4-mFc; test: competitive ELISA, CTLA4-mFc coated, competitor B7/2-His; antibody 3 µg/ml diluted 1:729
[29] = target: CTLA4-mFc; test: competitive ELISA, CTLA4-mFc coated, competitor B7/2-His; antibody 1.5 µg/ml diluted 1:3
[30] = target: CTLA4-mFc; test: competitive ELISA, CTLA4-mFc coated, competitor B7/2-His; antibody 1.5 µg/ml diluted 1:81
[31] = target: CTLA4-mFc; test: competitive ELISA, B7/1-hFc coated (competitor), CTLA4-mFc added; antibody 0 (no antibody)
[32] = target: CTLA4-mFc; test: competitive ELISA, CTLA4-mFc coated, competitor B7/2-His; antibody 1.5 µg/ml diluted 1:243
[33] = target: CTLA4-mFc; test: competitive ELISA, CTLA4-mFc coated, competitor B7/2-His; antibody 1.5 µg/ml diluted 1:729
[34] = target: CTLA4-mFc; test: competitive ELISA, B7/1-hFc coated (competitor), CTLA4-mFc added; antibody 5 µg/ml diluted 1:9
[35] = target: CTLA4-mFc; test: competitive ELISA, B7/1-hFc coated (competitor), CTLA4-mFc added; antibody 5 µg/ml diluted 1:729
[36] = target: CTLA4-mFc; test: competitive ELISA, B7/1-hFc coated (competitor), CTLA4-mFc added; antibody 5 µg/ml diluted 1:243
[37] = target: CTLA4-mFc; test: competition ELISA, coat B7/1-hFc 0.2 ug/ml (competitor), CTLA4-mFc 0.3 ug/ml detected; antibody 3 ug/ml
[38] = target: CTLA4-mFc; test: competition ELISA, coat B7/1-hFc 0.2 ug/ml (competitor), CTLA4-mFc 0.3 ug/ml detected; antibody 1:81 (start 3 ug/ml)

Chain of CTLA4-mFc (chain, as listed by the source limits assumed): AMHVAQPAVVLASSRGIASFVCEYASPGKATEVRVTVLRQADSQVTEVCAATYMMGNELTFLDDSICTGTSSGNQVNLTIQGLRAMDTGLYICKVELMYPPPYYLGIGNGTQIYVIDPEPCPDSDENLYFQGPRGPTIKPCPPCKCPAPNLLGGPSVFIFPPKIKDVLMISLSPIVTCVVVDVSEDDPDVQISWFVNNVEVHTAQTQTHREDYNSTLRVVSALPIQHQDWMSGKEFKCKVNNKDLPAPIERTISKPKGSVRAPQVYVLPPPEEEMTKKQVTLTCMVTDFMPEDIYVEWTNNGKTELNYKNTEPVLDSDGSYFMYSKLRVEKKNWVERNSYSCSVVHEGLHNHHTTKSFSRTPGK
Chain of CTLA4 antigen (NCBI Gene ID: 1493) obtained by TEV protease cleavage of CTLA4-mFc (Homo sapiens (Human)) (P16410 37-161 limits assumed): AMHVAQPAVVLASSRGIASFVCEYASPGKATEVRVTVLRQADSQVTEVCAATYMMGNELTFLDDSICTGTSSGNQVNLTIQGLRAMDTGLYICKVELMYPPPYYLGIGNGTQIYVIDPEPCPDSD
Chain of human CTLA4 (human) (P16410 36-161 limits assumed): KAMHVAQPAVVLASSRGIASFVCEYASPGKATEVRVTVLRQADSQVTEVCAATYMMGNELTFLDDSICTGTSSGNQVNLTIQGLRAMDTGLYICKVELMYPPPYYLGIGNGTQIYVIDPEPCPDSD
Chain of control antibody 11.2.1 (VH): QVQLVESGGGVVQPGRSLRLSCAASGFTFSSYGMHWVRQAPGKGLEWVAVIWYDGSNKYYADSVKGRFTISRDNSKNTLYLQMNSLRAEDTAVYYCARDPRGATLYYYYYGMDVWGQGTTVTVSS
Chain of control antibody 11.2.1 (VL): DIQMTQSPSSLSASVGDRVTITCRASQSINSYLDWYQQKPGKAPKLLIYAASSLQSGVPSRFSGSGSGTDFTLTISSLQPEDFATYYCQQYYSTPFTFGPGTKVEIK

Work on control antibody 11.2.1 yielded an absorbance at 450 nm [1] of 0.05, an EC50 [2] of 0.09 nM and an EC50 [3] of 0.075 nM. The EC50 [4] was 0.075 nM, the EC50 [5] was 0.15 nM and the absorbance at 450 nm [6] was 1.72 and 1.63. For the same substance, the absorbance at 450 nm [7] was 2.56 and 2.66, the Kd [8] was 0.903 nM and the koff [8] was 0.000349 s⁻¹. For the same substance, the kon [8] was 387000 M⁻¹ s⁻¹, the absorbance at 450 nm [9] was 1.37 and 1.53 and the absorbance at 450 nm [10] was 0.32 and 0.31. For the same substance, the EC50 [11] was 1.07 nM, the EC50 [12] was 0.15 nM and the EC50 [13] was 0.15 nM. The EC50 [14] was 0.172 nM, the absorbance at 450 nm [15] was 3.5 and 3.48 and the absorbance at 450 nm [16] was 3.21 and 3.19. The absorbance at 450 nm [17] was 1.25 and 1.27, the absorbance at 450 nm [18] was 0.536 and 0.552 and the absorbance at 450 nm [19] was 0.127 and 0.136. The absorbance at 450 nm [20] was 0.13 and 0.172, the absorbance at 450 nm [21] was 0.372 and 0.494 and the absorbance at 450 nm [22] was 1.19 and 1.1. The absorbance at 450 nm [23] was 0.987 and 0.819, the absorbance at 450 nm [24] was 0.387 and 0.402 and the absorbance at 450 nm [25] was 0.412 and 0.482. For the same substance, the absorbance at 450 nm [26] was 0.17 and 0.16, the absorbance at 450 nm [27] was 0.84 and 0.76 and the absorbance at 450 nm [28] was 1.36 and 1.23. For the same substance, the absorbance at 450 nm [29] was 0.437 and 0.348, the absorbance at 450 nm [30] was 0.805 and 0.649 and the absorbance at 450 nm [31] was 0.683 and 0.735. For the same substance, the absorbance at 450 nm [32] was 0.93 and 0.754, the absorbance at 450 nm [33] was 0.981 and 0.746 and the absorbance at 450 nm [34] was 0.33 and 0.3. For the same substance, the absorbance at 450 nm [35] was 0.909 and 0.793, the absorbance at 450 nm [36] was 1.3 and 1.31 and the absorbance at 450 nm [37] was 0.101 and 0.105. The absorbance at 450 nm [38] was 0.65 and 0.613.

Source: patent US20260166139A1
